B1: Twister Ribozyme (parent)
chain: AACACUGCCAAUGCCGGUCCCAAGCCCGGAUAAAAGUGGAGGGGGCGG

Variants of: B1
Experiment: self-cleavage, relative activity (ratio to wild type); higher = more cleavage; co-transcriptional

For C3A A4G, which self-cleavage is on record?
Its self-cleavage is 0.102.

For C3U A23C, which self-cleavage is on record?
The self-cleavage was 0.12.

With A23U G44A as the variant, how does the self-cleavage read?
Its self-cleavage is 0.679.

Which self-cleavage does the source give for C9U G16C here?
Its self-cleavage is 0.13.

With G24U C25G as the variant, how does the self-cleavage read?
The self-cleavage was 0.104.

For A35U U37A, which self-cleavage is on record?
Its self-cleavage is 0.834.

For C9G G24C, which self-cleavage is on record?
Its self-cleavage is 0.0967.

Which self-cleavage does the source give for U31A A33C here?
The self-cleavage was 0.833.

Which self-cleavage does the source give for G41A C46U here?
The self-cleavage was 0.612.

With C3A G38A as the variant, how does the self-cleavage read?
The self-cleavage was 0.268.

With G36U G41C as the variant, how does the self-cleavage read?
The self-cleavage was 0.114.

For C8G G29U, which self-cleavage is on record?
The self-cleavage was 0.156.

With C27G G48C as the variant, how does the self-cleavage read?
The self-cleavage was 0.147.

For G24A C25G, which self-cleavage is on record?
Its self-cleavage is 0.0958.

With A1G A22G as the variant, how does the self-cleavage read?
The self-cleavage was 0.165.

With C21G A22G as the variant, how does the self-cleavage read?
Its self-cleavage is 0.135.

For A4U G29C, which self-cleavage is on record?
The self-cleavage was 0.0635.

For G17C G45A, which self-cleavage is on record?
The self-cleavage was 0.132.

Which self-cleavage does the source give for G17U C26U here?
Its self-cleavage is 0.458.

With C21A G47A as the variant, how does the self-cleavage read?
Its self-cleavage is 0.135.

For G39A G44A, which self-cleavage is on record?
Its self-cleavage is 0.339.

For C3G G41C, which self-cleavage is on record?
The self-cleavage was 0.0954.

With A4U G39U as the variant, how does the self-cleavage read?
The self-cleavage was 0.0721.

Which self-cleavage does the source give for G28C G44C here?
The self-cleavage was 0.666.

Which self-cleavage does the source give for C5U A40U here?
Its self-cleavage is 0.146.

Which self-cleavage does the source give for G24C G28C here?
The self-cleavage was 0.135.

Which self-cleavage does the source give for G7A U31G here?
The self-cleavage was 0.647.

Which self-cleavage does the source give for G7C C27G here?
Its self-cleavage is 0.073.

With G24U G39U as the variant, how does the self-cleavage read?
Its self-cleavage is 0.0828.

Which self-cleavage does the source give for U6C G36A here?
The self-cleavage was 0.136.

For C8G G48U, which self-cleavage is on record?
The self-cleavage was 0.263.

Which self-cleavage does the source give for C8A A35U here?
The self-cleavage was 0.477.

For G7C A35C, which self-cleavage is on record?
Its self-cleavage is 0.064.

For C19U C26U, which self-cleavage is on record?
The self-cleavage was 0.0803.

Which self-cleavage does the source give for A2G A4C here?
Its self-cleavage is 0.0432.

With A23C A34G as the variant, how does the self-cleavage read?
Its self-cleavage is 0.135.

For A2G G42U, which self-cleavage is on record?
The self-cleavage was 0.11.

Which self-cleavage does the source give for G16A A32C here?
The self-cleavage was 0.97.

For U18A G36C, which self-cleavage is on record?
Its self-cleavage is 0.0768.

Which self-cleavage does the source give for C5A U6G here?
Its self-cleavage is 0.154.

Which self-cleavage does the source give for C21G G39U here?
Its self-cleavage is 0.0469.

Which self-cleavage does the source give for A33G G36U here?
The self-cleavage was 0.256.

For C15G G43A, which self-cleavage is on record?
Its self-cleavage is 0.0569.

With G43C G44C as the variant, how does the self-cleavage read?
Its self-cleavage is 0.686.

For G17C G44C, which self-cleavage is on record?
The self-cleavage was 0.122.

For C15A A23U, which self-cleavage is on record?
Its self-cleavage is 0.0658.

Which self-cleavage does the source give for C25A G42C here?
Its self-cleavage is 0.115.

Which self-cleavage does the source give for A32C G41C here?
The self-cleavage was 0.326.

For C8G G41C, which self-cleavage is on record?
Its self-cleavage is 0.122.

For A23U C26A, which self-cleavage is on record?
Its self-cleavage is 0.234.

For U6G A32U, which self-cleavage is on record?
Its self-cleavage is 0.405.

For U6A A22C, which self-cleavage is on record?
Its self-cleavage is 0.936.

For G7U A22G, which self-cleavage is on record?
Its self-cleavage is 0.0616.

With A33U A34C as the variant, how does the self-cleavage read?
The self-cleavage was 0.637.

Which self-cleavage does the source give for G13U G38U here?
Its self-cleavage is 0.303.

Which self-cleavage does the source give for C27A G36A here?
The self-cleavage was 0.121.

With C27A G36C as the variant, how does the self-cleavage read?
The self-cleavage was 0.123.

With C27A G36U as the variant, how does the self-cleavage read?
Its self-cleavage is 0.128.

For U6A A23G, which self-cleavage is on record?
The self-cleavage was 0.14.

For U6A A23U, which self-cleavage is on record?
Its self-cleavage is 0.191.

With A10G C20U as the variant, how does the self-cleavage read?
Its self-cleavage is 0.878.

For C14U G39C, which self-cleavage is on record?
The self-cleavage was 0.198.

Which self-cleavage does the source give for G24C C46G here?
The self-cleavage was 0.105.

For A30U U37C, which self-cleavage is on record?
Its self-cleavage is 0.72.

For A22C G42A, which self-cleavage is on record?
Its self-cleavage is 0.215.

For G42C G47U, which self-cleavage is on record?
The self-cleavage was 0.491.

With C26U A33U as the variant, how does the self-cleavage read?
Its self-cleavage is 0.266.

Which self-cleavage does the source give for C26G G36C here?
Its self-cleavage is 0.0652.

Which self-cleavage does the source give for A2U A34C here?
Its self-cleavage is 0.15.

Which self-cleavage does the source give for A11U here?
The self-cleavage was 1.04.

With A11G as the variant, how does the self-cleavage read?
Its self-cleavage is 0.932.

Which self-cleavage does the source give for C3G G47U here?
The self-cleavage was 0.361.

Which self-cleavage does the source give for C5U C15U here?
The self-cleavage was 0.762.

For A23U A32C, which self-cleavage is on record?
Its self-cleavage is 0.464.

With G28C G29A as the variant, how does the self-cleavage read?
Its self-cleavage is 1.

With C20G C27A as the variant, how does the self-cleavage read?
Its self-cleavage is 0.102.

For C26U A40U, which self-cleavage is on record?
The self-cleavage was 0.131.

With C3G G16C as the variant, how does the self-cleavage read?
Its self-cleavage is 0.123.

Which self-cleavage does the source give for C19U C20A here?
Its self-cleavage is 0.107.

With A10U A34U as the variant, how does the self-cleavage read?
The self-cleavage was 0.818.

For U31C U37A, which self-cleavage is on record?
The self-cleavage was 0.892.

With A32G A33C as the variant, how does the self-cleavage read?
The self-cleavage was 0.833.

With C26G C46A as the variant, how does the self-cleavage read?
The self-cleavage was 0.153.
